Reference: patent US20070105779A1, “Isolated, ssx-2 and ssx-2 related peptides useful as hla binders and ctl epitopes, and uses thereof” (priority 2002, published 2007)

Columns and labels:
HLA-A2 [1] = test: functional competition vs tyrosinase 368-376 on T2 cells; relative to SEQ ID NO: 17
HLA-A2 [2] = test: functional competition vs tyrosinase 368-376 on T2 cells, readout lysis by CTL LAU 156/34; 50% inhibition
HLA-A2 [3] = test: functional competition vs tyrosinase 368-376 on T2 cells, readout lysis by CTL LAU 156/34; relative to SEQ ID NO: 1

B1: … (SEQ ID NO: 1) (peptide)
peptide: AAAPKIFYA
modifications: not checked
Relative binding (HLA-A2 [1]): 10
IC50 (HLA-A2 [2]): 20 nM
Relative binding (HLA-A2 [3]): 1

B2: … (SEQ ID NO: 4) (peptide)
peptide: AAAPAIFYA
modifications: not checked
Relative binding (HLA-A2 [1]): 9
IC50 (HLA-A2 [2]): 22 nM
Relative binding (HLA-A2 [3]): 0.9

B3: … (SEQ ID NO: 2) (peptide)
peptide: AAGPKIFYA
modifications: not checked
Relative binding (HLA-A2 [1]): 0.7
IC50 (HLA-A2 [2]): 286 nM
Relative binding (HLA-A2 [3]): 0.07

B4: … (SEQ ID NO: 3) (peptide)
peptide: AAAAKIFYA
modifications: not checked
Relative binding (HLA-A2 [1]): 1.5
IC50 (HLA-A2 [2]): 133 nM
Relative binding (HLA-A2 [3]): 0.16

B5: … (SEQ ID NO: 5) (peptide)
peptide: AAAPKAFYA
modifications: not checked
Relative binding (HLA-A2 [1]): 1
IC50 (HLA-A2 [2]): 200 nM
Relative binding (HLA-A2 [3]): 0.1
